Test results: paper PMC9482650, “Quantitative fragmentomics allow affinity mapping of interactomes” (Nature Communications, 2022)

T1: APBA1_1, Q02410
T1 sequence (Q02410 651-752, limits assumed, looked up): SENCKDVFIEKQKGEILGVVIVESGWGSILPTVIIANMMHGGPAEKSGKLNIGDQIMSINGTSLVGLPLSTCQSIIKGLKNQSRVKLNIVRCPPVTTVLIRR

T2: APBA2_1, Q99767
T2 sequence (Q99767 563-664, limits assumed, looked up): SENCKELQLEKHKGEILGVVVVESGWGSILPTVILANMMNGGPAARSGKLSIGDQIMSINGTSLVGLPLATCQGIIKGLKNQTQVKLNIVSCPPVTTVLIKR

T3: ARHGAP21, Q5T5U3
T3 sequence (Q5T5U3 45-169, limits assumed, looked up): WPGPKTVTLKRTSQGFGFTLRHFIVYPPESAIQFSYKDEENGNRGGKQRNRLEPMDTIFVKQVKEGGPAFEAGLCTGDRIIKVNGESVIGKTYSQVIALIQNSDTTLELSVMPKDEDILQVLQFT

T4: MPDZ_10, O75970
T4 sequence (O75970 1624-1722, limits assumed, looked up): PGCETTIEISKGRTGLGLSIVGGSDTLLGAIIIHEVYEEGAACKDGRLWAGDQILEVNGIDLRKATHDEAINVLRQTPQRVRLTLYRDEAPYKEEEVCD

T5: MPDZ_12, O75970
T5 sequence (O75970 1857-1958, limits assumed, looked up): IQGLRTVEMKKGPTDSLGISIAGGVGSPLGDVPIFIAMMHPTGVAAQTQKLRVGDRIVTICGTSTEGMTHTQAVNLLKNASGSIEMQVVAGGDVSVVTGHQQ

T6: MPDZ_5, O75970
T6 sequence (O75970 695-796, limits assumed, looked up): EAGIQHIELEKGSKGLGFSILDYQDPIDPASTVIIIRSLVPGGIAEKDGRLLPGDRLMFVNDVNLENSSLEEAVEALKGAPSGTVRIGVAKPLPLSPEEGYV

T7: PARD3B_1, Q8TEW8
T7 sequence (Q8TEW8 196-299, limits assumed, looked up): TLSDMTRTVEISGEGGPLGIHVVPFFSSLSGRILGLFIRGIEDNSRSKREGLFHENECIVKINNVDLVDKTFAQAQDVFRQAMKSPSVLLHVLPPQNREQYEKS

T8: RADIL, Q96JH8
T8 sequence (Q96JH8 971-1071, limits assumed, looked up): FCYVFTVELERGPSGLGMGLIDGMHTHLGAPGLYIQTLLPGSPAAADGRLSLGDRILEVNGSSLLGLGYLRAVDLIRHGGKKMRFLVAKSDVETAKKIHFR

T9: RAPGEF6, Q8TEU7
T9 sequence (Q8TEU7 525-625, limits assumed, looked up): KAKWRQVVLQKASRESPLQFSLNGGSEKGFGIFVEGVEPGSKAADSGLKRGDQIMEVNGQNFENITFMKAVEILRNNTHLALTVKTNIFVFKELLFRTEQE

T10: SHANK1, Q9Y566
T10 sequence (Q9Y566 658-767, limits assumed, looked up): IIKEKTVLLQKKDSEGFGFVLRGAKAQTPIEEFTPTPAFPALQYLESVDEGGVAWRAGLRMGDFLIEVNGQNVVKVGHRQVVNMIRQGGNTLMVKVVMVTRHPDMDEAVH


What follows are binders tested against AHNAK1, Q09666 (assay: holdup assay). Settings: plain residues with an end cap or a label only (N-terminal biotin on a linker: ttds).
AHNAK1, Q09666, sequence (Q09666 4-100): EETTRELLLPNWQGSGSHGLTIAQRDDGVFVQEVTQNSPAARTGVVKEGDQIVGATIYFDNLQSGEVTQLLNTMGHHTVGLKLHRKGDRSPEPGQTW
Design: key: below the threshold = too weak to quantify, mostly under pKd 3.1 to 4

Row | Binder | pKd
1 | QFQYAKESYI [TAGAP, Q8N103] | below the threshold
2 | LCALPKVTTV [AGMAT, Q9BSE5] | below the threshold

These binders were tested against T1, APBA1_1, Q02410 (assay: holdup assay). Settings: plain residues with an end cap or a label only (N-terminal biotin on a linker: ttds).
Design: key: below the threshold = too weak to quantify, mostly under pKd 3.1 to 4

Row | Binder | pKd
3 | QFQYAKESYI [TAGAP, Q8N103] | below the threshold
4 | LCALPKVTTV [AGMAT, Q9BSE5] | below the threshold

The binders below were run against T2, APBA2_1, Q99767 (assay: holdup assay). Settings: plain residues with an end cap or a label only (N-terminal biotin on a linker: ttds).
Design: key: below the threshold = too weak to quantify, mostly under pKd 3.1 to 4

Row | Binder | pKd
5 | QFQYAKESYI [TAGAP, Q8N103] | below the threshold
6 | LCALPKVTTV [AGMAT, Q9BSE5] | below the threshold

These binders were tested against T3, ARHGAP21, Q5T5U3 (assay: holdup assay). Settings: plain residues with an end cap or a label only (N-terminal biotin on a linker: ttds).
Design: key: below the threshold = too weak to quantify, mostly under pKd 3.1 to 4

Row | Binder | pKd
7 | QFQYAKESYI [TAGAP, Q8N103] | below the threshold
8 | LCALPKVTTV [AGMAT, Q9BSE5] | below the threshold

Each binder was assayed against DLG1_3, Q12959 (assay: holdup assay). Settings: plain residues with an end cap or a label only (N-terminal biotin on a linker: ttds).
DLG1_3, Q12959, sequence (Q12959 457-571): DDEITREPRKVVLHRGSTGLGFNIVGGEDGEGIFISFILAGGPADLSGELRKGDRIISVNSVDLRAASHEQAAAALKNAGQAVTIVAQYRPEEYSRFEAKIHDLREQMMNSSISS
Design: key: below the threshold = too weak to quantify, mostly under pKd 3.1 to 4

Row | Binder | pKd
9 | QFQYAKESYI [TAGAP, Q8N103] | 4.05
10 | LCALPKVTTV [AGMAT, Q9BSE5] | 4.77

The binders below were run against DLG5_1, Q8TDM6 (assay: holdup assay). Settings: plain residues with an end cap or a label only (N-terminal biotin on a linker: ttds).
DLG5_1, Q8TDM6, sequence (Q8TDM6 617-713): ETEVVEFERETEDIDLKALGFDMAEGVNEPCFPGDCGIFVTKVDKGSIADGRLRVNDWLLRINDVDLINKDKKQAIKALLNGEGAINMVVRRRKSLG
Design: key: below the threshold = too weak to quantify, mostly under pKd 3.1 to 4

Row | Binder | pKd
11 | QFQYAKESYI [TAGAP, Q8N103] | below the threshold
12 | LCALPKVTTV [AGMAT, Q9BSE5] | below the threshold

Each binder was assayed against FRMPD2_2, Q68DX3 (assay: holdup assay). Settings: plain residues with an end cap or a label only (N-terminal biotin on a linker: ttds).
FRMPD2_2, Q68DX3, sequence (Q68DX3 944-1038): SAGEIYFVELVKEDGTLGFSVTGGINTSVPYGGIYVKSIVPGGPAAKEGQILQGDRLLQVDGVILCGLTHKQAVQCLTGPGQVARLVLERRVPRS
Design: key: below the threshold = too weak to quantify, mostly under pKd 3.1 to 4

Row | Binder | pKd
13 | QFQYAKESYI [TAGAP, Q8N103] | 4.33
14 | LCALPKVTTV [AGMAT, Q9BSE5] | 3.72

These binders were tested against GOPC, Q9HD26 (assay: holdup assay). Settings: plain residues with an end cap or a label only (N-terminal biotin on a linker: ttds).
Design: key: below the threshold = too weak to quantify, mostly under pKd 3.1 to 4

Row | Binder | pKd
15 | QFQYAKESYI [TAGAP, Q8N103] | 3.95
16 | LCALPKVTTV [AGMAT, Q9BSE5] | 3.78

These binders were tested against GRASP, Q7Z6J2 (assay: holdup assay). Settings: plain residues with an end cap or a label only (N-terminal biotin on a linker: ttds).
GRASP, Q7Z6J2, sequence (Q7Z6J2 96-193): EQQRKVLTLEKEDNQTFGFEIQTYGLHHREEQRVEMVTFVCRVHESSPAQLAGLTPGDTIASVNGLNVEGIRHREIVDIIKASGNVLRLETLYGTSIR
Design: key: below the threshold = too weak to quantify, mostly under pKd 3.1 to 4

Row | Binder | pKd
17 | QFQYAKESYI [TAGAP, Q8N103] | below the threshold
18 | LCALPKVTTV [AGMAT, Q9BSE5] | 4.47

The binders below were run against GRID2IP_1, A4D2P6 (assay: holdup assay). Settings: plain residues with an end cap or a label only (N-terminal biotin on a linker: ttds).
GRID2IP_1, A4D2P6, sequence (A4D2P6 1-87): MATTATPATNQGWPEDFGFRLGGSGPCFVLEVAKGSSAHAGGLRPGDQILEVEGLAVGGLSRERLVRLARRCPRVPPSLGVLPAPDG
Design: key: below the threshold = too weak to quantify, mostly under pKd 3.1 to 4

Row | Binder | pKd
19 | QFQYAKESYI [TAGAP, Q8N103] | below the threshold
20 | LCALPKVTTV [AGMAT, Q9BSE5] | below the threshold

Each binder was assayed against IL16_1, Q14005 (assay: holdup assay). Settings: plain residues with an end cap or a label only (N-terminal biotin on a linker: ttds).
IL16_1, Q14005, sequence (Q14005 210-306): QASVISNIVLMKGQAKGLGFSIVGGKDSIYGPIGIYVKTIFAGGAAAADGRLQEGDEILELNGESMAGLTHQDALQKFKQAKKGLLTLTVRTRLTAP
Design: key: below the threshold = too weak to quantify, mostly under pKd 3.1 to 4

Row | Binder | pKd
21 | QFQYAKESYI [TAGAP, Q8N103] | 4.65
22 | LCALPKVTTV [AGMAT, Q9BSE5] | 4.06

Each binder was assayed against Inadl_9, Q8NI35 (assay: holdup assay). Settings: plain residues with an end cap or a label only (N-terminal biotin on a linker: ttds).
Inadl_9, Q8NI35, sequence (Q8NI35 1530-1615): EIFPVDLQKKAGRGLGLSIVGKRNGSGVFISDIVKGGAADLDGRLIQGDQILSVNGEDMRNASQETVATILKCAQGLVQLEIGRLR
Design: key: below the threshold = too weak to quantify, mostly under pKd 3.1 to 4

Row | Binder | pKd
23 | QFQYAKESYI [TAGAP, Q8N103] | 3.5
24 | LCALPKVTTV [AGMAT, Q9BSE5] | 3.52

The binders below were run against LAP2, Q96RT1 (assay: holdup assay). Settings: plain residues with an end cap or a label only (N-terminal biotin on a linker: ttds).
LAP2, Q96RT1, sequence (Q96RT1 other isoform, or with tags, fused parts or gaps): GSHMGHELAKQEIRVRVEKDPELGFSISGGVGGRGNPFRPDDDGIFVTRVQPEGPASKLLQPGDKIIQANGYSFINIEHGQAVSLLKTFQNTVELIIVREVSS
Design: key: below the threshold = too weak to quantify, mostly under pKd 3.1 to 4

Row | Binder | pKd
25 | QFQYAKESYI [TAGAP, Q8N103] | 3.48
26 | LCALPKVTTV [AGMAT, Q9BSE5] | 3.61

The binders below were run against LNX1_1, Q8TBB1 (assay: holdup assay). Settings: plain residues with an end cap or a label only (N-terminal biotin on a linker: ttds).
LNX1_1, Q8TBB1, sequence (Q8TBB1 261-371): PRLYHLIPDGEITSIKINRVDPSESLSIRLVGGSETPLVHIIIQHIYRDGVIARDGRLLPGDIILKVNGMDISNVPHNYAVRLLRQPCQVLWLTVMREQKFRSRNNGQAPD
Design: key: below the threshold = too weak to quantify, mostly under pKd 3.1 to 4

Row | Binder | pKd
27 | QFQYAKESYI [TAGAP, Q8N103] | 3.66
28 | LCALPKVTTV [AGMAT, Q9BSE5] | 3.98

Each binder was assayed against MAGI2_4, Q86UL8 (assay: holdup assay). Settings: plain residues with an end cap or a label only (N-terminal biotin on a linker: ttds).
MAGI2_4, Q86UL8, sequence (Q86UL8 772-865): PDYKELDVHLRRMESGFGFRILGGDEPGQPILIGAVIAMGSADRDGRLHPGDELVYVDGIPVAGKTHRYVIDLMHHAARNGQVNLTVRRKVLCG
Design: key: below the threshold = too weak to quantify, mostly under pKd 3.1 to 4

Row | Binder | pKd
29 | QFQYAKESYI [TAGAP, Q8N103] | below the threshold
30 | LCALPKVTTV [AGMAT, Q9BSE5] | 4.55

What follows are binders tested against MAGI3_2, Q5TCQ9 (assay: holdup assay). Settings: plain residues with an end cap or a label only (N-terminal biotin on a linker: ttds).
MAGI3_2, Q5TCQ9, sequence (Q5TCQ9 398-503): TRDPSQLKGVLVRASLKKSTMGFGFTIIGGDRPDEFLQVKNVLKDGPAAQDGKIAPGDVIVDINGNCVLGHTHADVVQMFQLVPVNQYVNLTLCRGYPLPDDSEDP
Design: key: below the threshold = too weak to quantify, mostly under pKd 3.1 to 4

Row | Binder | pKd
31 | QFQYAKESYI [TAGAP, Q8N103] | 4.6
32 | LCALPKVTTV [AGMAT, Q9BSE5] | 4.82

What follows are binders tested against T4, MPDZ_10, O75970 (assay: holdup assay). Settings: plain residues with an end cap or a label only (N-terminal biotin on a linker: ttds).
Design: key: below the threshold = too weak to quantify, mostly under pKd 3.1 to 4

Row | Binder | pKd
33 | QFQYAKESYI [TAGAP, Q8N103] | below the threshold
34 | LCALPKVTTV [AGMAT, Q9BSE5] | 4.14

What follows are binders tested against T5, MPDZ_12, O75970 (assay: holdup assay). Settings: plain residues with an end cap or a label only (N-terminal biotin on a linker: ttds).
Design: key: below the threshold = too weak to quantify, mostly under pKd 3.1 to 4

Row | Binder | pKd
35 | QFQYAKESYI [TAGAP, Q8N103] | below the threshold
36 | LCALPKVTTV [AGMAT, Q9BSE5] | below the threshold

The binders below were run against T6, MPDZ_5, O75970 (assay: holdup assay). Settings: plain residues with an end cap or a label only (N-terminal biotin on a linker: ttds).
Design: key: below the threshold = too weak to quantify, mostly under pKd 3.1 to 4

Row | Binder | pKd
37 | QFQYAKESYI [TAGAP, Q8N103] | below the threshold
38 | LCALPKVTTV [AGMAT, Q9BSE5] | below the threshold

What follows are binders tested against NHERF4_1, Q86UT5-2 (assay: holdup assay). Settings: plain residues with an end cap or a label only (N-terminal biotin on a linker: ttds).
NHERF4_1, Q86UT5-2, sequence (Q86UT5 other isoform, or with tags, fused parts or gaps): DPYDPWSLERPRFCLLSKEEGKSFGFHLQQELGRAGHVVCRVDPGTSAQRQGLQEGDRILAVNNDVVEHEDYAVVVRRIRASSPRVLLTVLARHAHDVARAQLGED
Design: key: below the threshold = too weak to quantify, mostly under pKd 3.1 to 4

Row | Binder | pKd
39 | QFQYAKESYI [TAGAP, Q8N103] | below the threshold
40 | LCALPKVTTV [AGMAT, Q9BSE5] | below the threshold

Each binder was assayed against NHERF4_2, Q86UT5 (assay: holdup assay). Settings: plain residues with an end cap or a label only (N-terminal biotin on a linker: ttds).
NHERF4_2, Q86UT5, sequence (Q86UT5 220-308): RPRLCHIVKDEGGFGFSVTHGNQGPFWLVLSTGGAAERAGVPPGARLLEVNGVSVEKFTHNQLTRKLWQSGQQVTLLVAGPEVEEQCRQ
Design: key: below the threshold = too weak to quantify, mostly under pKd 3.1 to 4

Row | Binder | pKd
41 | QFQYAKESYI [TAGAP, Q8N103] | below the threshold
42 | LCALPKVTTV [AGMAT, Q9BSE5] | below the threshold

Each binder was assayed against T7, PARD3B_1, Q8TEW8 (assay: holdup assay). Settings: plain residues with an end cap or a label only (N-terminal biotin on a linker: ttds).
Design: key: below the threshold = too weak to quantify, mostly under pKd 3.1 to 4

Row | Binder | pKd
43 | QFQYAKESYI [TAGAP, Q8N103] | 3.98
44 | LCALPKVTTV [AGMAT, Q9BSE5] | below the threshold

Each binder was assayed against T8, RADIL, Q96JH8 (assay: holdup assay). Settings: plain residues with an end cap or a label only (N-terminal biotin on a linker: ttds).
Design: key: below the threshold = too weak to quantify, mostly under pKd 3.1 to 4

Row | Binder | pKd
45 | QFQYAKESYI [TAGAP, Q8N103] | 3.69
46 | LCALPKVTTV [AGMAT, Q9BSE5] | 4.59

These binders were tested against T9, RAPGEF6, Q8TEU7 (assay: holdup assay). Settings: plain residues with an end cap or a label only (N-terminal biotin on a linker: ttds).
Design: key: below the threshold = too weak to quantify, mostly under pKd 3.1 to 4

Row | Binder | pKd
47 | QFQYAKESYI [TAGAP, Q8N103] | below the threshold
48 | LCALPKVTTV [AGMAT, Q9BSE5] | 3.63

What follows are binders tested against SCRIB_1, Q14160 (assay: holdup assay). Settings: plain residues with an end cap or a label only (N-terminal biotin on a linker: ttds).
SCRIB_1, Q14160, sequence (Q14160 718-814): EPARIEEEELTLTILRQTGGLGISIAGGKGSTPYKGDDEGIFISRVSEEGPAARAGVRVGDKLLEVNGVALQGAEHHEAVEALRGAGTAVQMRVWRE
Design: key: below the threshold = too weak to quantify, mostly under pKd 3.1 to 4

Row | Binder | pKd
49 | QFQYAKESYI [TAGAP, Q8N103] | 3.72
50 | LCALPKVTTV [AGMAT, Q9BSE5] | 4.39

What follows are binders tested against T10, SHANK1, Q9Y566 (assay: holdup assay). Settings: plain residues with an end cap or a label only (N-terminal biotin on a linker: ttds).
Design: key: below the threshold = too weak to quantify, mostly under pKd 3.1 to 4

Row | Binder | pKd
51 | QFQYAKESYI [TAGAP, Q8N103] | below the threshold
52 | LCALPKVTTV [AGMAT, Q9BSE5] | below the threshold
